Measured values taken from KR20130034043A, “폴리펩타이드” (애피바디 에이비, priority 2010, dated 2013).
Blank lines part the entries; values can stand above or below the molecule they belong to. Where no end group is shown, it is not given here.

Columns and labels:
[1] = Small animal PET, whole-body distribution of 68Ga-labelled polypeptide (Example 11); format: in vivo, 랫트; conditions: after i.v. injection, […] scan
인간 혈청 함유 IgG = format: binding
[2] = Melting temperature (Tm) by circular dichroism, variable temperature (Example 3); format: physicochemical; conditions: higher Tm with N-terminal serine
인간 혈청 알부민(HSA) [3] = target: T1, 인간 혈청 알부민(HSA) (Homo sapiens, UniProt P02768); test: Biacore (SPR) affinity for immobilised HSA (Example 2); format: binding; conditions: as in Example 2; data not shown
T1 construct: purchased Novozymes

인간 혈청 알부민(HSA) [4] = target: T1, 인간 혈청 알부민(HSA); test: Biacore affinity for albumin of various species: human (Example 7); format: binding
CSA = target: T2, CSA (Macaca fascicularis, UniProt A2V9Z4); test: Biacore affinity for albumin of various species: cynomolgus (Example 7); format: binding, 필리핀 원숭이; conditions: range stated over all five species
T2 construct: CSA(cynomolgus 혈청으로부터 얻어 in-house 정제시킴); from tissue; host or cells: cynomolgus serum

RSA = target: T3, RSA (Rattus norvegicus, UniProt P02770); test: Biacore affinity for albumin of various species: rat (Example 7); format: binding, 랫트; conditions: range stated over all five species
T3 construct: purchased Sigma-Aldrich A6272

MSA = target: T4, MSA (Mus musculus, UniProt P07724); test: Biacore affinity for albumin of various species: mouse (Example 7); format: binding, 마우스; conditions: range stated over all five species
T4 construct: purchased Sigma-Aldrich A3559

DSA = target: T5, DSA (Canis lupus familiaris, UniProt P49822); test: Biacore affinity for albumin of various species: dog (Example 7); format: binding, 개; conditions: range stated over all five species
T5 construct: purchased MP Biomedicals 55925

HSA = target: T6, HSA (Homo sapiens, UniProt P02768); test: Stability to heat and low pH, biosensor analysis of HSA binding (Example 10); format: physicochemical, 인간; conditions: 90℃, 10 min, pH 4.0
T6 construct: purchased Novozymes

[5] = Stability to heat, CD analysis of structural reversibility (Example 10); format: physicochemical

T2 sequence (A2V9Z4 25-608): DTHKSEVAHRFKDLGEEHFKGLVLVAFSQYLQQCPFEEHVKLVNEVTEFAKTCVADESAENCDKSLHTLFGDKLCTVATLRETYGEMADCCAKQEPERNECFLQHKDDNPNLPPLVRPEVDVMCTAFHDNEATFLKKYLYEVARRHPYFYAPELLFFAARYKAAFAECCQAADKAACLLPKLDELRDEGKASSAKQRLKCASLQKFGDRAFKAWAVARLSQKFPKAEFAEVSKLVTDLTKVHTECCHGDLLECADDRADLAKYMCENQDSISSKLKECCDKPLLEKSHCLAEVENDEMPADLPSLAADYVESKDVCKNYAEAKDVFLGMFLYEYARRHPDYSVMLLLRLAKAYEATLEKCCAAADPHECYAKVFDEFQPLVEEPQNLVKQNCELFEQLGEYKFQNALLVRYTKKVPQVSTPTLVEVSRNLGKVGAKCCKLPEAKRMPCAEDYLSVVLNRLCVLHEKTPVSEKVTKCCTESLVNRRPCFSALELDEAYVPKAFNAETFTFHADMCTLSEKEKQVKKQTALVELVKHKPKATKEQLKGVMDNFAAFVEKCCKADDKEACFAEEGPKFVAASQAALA
T4 sequence (P07724 25-608): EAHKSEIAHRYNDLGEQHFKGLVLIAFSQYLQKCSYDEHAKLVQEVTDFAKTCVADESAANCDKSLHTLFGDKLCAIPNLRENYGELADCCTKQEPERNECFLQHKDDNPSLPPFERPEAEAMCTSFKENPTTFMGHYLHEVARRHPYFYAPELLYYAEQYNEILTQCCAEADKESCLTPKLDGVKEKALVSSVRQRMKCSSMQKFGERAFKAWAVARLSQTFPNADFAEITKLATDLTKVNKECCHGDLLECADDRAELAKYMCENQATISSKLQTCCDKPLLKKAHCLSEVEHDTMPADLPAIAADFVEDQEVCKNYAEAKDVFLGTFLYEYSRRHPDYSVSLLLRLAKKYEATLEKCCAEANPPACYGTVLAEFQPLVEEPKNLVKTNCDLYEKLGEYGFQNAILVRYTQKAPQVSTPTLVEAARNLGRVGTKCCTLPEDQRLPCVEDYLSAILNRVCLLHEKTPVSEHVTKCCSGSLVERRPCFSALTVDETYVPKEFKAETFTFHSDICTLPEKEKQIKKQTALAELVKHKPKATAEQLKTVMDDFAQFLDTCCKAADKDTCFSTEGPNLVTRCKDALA
T3 sequence (P02770 25-608): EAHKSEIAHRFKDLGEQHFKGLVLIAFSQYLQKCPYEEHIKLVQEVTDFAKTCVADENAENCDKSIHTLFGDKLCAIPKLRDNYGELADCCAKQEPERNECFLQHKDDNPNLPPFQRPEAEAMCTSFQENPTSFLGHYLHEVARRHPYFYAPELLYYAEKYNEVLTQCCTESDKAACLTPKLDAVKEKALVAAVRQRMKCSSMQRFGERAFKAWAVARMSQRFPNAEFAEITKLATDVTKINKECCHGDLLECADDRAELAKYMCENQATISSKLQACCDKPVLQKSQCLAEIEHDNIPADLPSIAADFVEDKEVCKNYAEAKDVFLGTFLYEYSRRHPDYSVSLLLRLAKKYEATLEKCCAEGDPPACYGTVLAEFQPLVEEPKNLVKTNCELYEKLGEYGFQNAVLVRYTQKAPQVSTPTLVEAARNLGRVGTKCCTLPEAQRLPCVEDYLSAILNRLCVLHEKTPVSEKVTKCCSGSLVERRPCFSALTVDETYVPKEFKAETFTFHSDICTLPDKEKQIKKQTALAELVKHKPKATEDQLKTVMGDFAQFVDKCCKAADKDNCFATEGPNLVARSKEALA
T5 sequence (P49822 25-608): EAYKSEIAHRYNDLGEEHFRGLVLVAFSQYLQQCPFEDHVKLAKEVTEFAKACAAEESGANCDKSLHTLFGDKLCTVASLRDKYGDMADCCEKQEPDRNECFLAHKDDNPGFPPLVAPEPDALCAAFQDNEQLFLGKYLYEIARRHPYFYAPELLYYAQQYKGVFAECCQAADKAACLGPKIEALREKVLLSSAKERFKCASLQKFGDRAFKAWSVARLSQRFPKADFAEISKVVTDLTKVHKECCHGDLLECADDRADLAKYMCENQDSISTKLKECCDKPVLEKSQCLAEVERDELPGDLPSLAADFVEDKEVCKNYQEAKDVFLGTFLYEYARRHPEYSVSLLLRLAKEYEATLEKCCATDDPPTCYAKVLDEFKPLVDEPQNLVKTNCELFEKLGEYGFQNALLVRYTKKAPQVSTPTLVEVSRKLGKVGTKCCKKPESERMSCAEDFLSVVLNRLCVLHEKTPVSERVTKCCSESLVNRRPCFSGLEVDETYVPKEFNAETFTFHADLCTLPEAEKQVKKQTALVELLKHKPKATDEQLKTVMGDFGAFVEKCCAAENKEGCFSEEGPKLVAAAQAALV

Molecule: 68Ga-PEP08296: 68Ga-labelled PEP08296 (DOTA-conjugated PEP08185, SEQ ID NO:148) (GSLAEAKEAANAELDCYGVSDFYKRLIDKAKTVEGVEALKDAILAALPG; also: DOTA chelator conjugated, place not given here, 68Ga label)
Plasma clearance [1]: 매우 느린

Molecule: CC[C@H](C)[C@H](NC(=O)[C@H](C)NC(=O)[C@H](CC(=O)O)NC(=O)[C@H](CCCCN)NC(=O)[C@H](CC(C)C)NC(=O)[C@H](C)NC(=O)[C@H](CCC(=O)O)NC(=O)[C@@H](NC(=O)CNC(=O)[C@H](CCC(=O)O)NC(=O)[C@@H](NC(=O)[C@@H](NC(=O)[C@H](CCCCN)NC(=O)[C@H](C)NC(=O)[C@H](CCCCN)NC(=O)[C@H](CC(=O)O)NC(=O)[C@@H](NC(=O)[C@H](CC(C)C)NC(=O)[C@H](CCCNC(=N)N)NC(=O)[C@H](CCCCN)NC(=O)[C@H](Cc1ccc(O)cc1)NC(=O)[C@H](Cc1ccccc1)NC(=O)[C@H](CC(=O)O)NC(=O)[C@H](CO)NC(=O)[C@@H](NC(=O)CNC(=O)[C@H](Cc1ccc(O)cc1)NC(=O)[C@H](CSC1CC(=O)N(CCNC(=O)CN2CCN(CC(=O)O)CCN(CC(=O)O)CCN(CC(=O)O)CC2)C1=O)NC(=O)[C@H](CC(=O)O)NC(=O)[C@H](CC(C)C)NC(=O)[C@H](CCC(=O)O)NC(=O)[C@H](C)NC(=O)[C@H](CC(N)=O)NC(=O)[C@H](C)NC(=O)[C@H](C)NC(=O)[C@H](CCC(=O)O)NC(=O)[C@H](CCCCN)NC(=O)[C@H](C)NC(=O)[C@H](CO)NC(=O)[C@H](C)NC(=O)[C@H](CC(C)C)NC(=O)CN)C(C)C)[C@@H](C)CC)[C@@H](C)O)C(C)C)C(C)C)C(=O)N[C@@H](CC(C)C)C(=O)N[C@@H](C)C(=O)N[C@@H](C)C(=O)N[C@@H](CC(C)C)C(=O)N1CCC[C@H]1C(=O)O (some centres unmarked) [PEP07968]
Reactivity with human serum IgG (mean OD and proportion of sera binding) (인간 혈청 함유 IgG): 가장 낮은 반응도 | Immunogenicity classification (CD3+ CD4+ T 세포): 비-면역원성 | Number of responding individuals compared with buffer only (CD3+ CD4+ T 세포): 1 명

Molecule: PEP07554: albumin binding polypeptide variant, SEQ ID NO:156 (GSS + PP007 sequence) (GSSLASAKEAANAELDSYGVSDFYKRLIDKAKTVEGVEALKDAILAALP; Engineered albumin-binding polypeptide)
Tm difference, N-terminal serine vs glycine at the same position (PEP07554 vs PEP07912) [2]: 5 °C

Binding activity to HSA (인간 혈청 알부민(HSA) [3]): 확인하였으며
Molecule: PEP07975: maleimide-DOTA-conjugated PEP07834 (SEQ ID NO:160), C-terminal amide, chemically synthesised (ALASAKEAANAELDCYGVSDFYKRLIDKAKTVEGVEALKDAILAALP-NH2; also: maleimide-DOTA conjugate, place not given here)

Molecule: PEP08296: DOTA-conjugated PEP08185 (SEQ ID NO:148) (GSLAEAKEAANAELDCYGVSDFYKRLIDKAKTVEGVEALKDAILAALPG; also: DOTA conjugate, place not given here)
Rank order of relative affinity for albumins of the species (인간 혈청 알부민(HSA) [4]; HSA, CSA, RSA, MSA, DSA): RSA ≥ HSA/CSA > MSA/DSA | Affinity (KD) compared with PEP06923 (인간 혈청 알부민(HSA) [4]; albumins of the tested species, same order of magnitude): 같거나 약간 낮다 | KD for HSA (인간 혈청 알부민(HSA) [4]; range stated over all five species): 높은 친화성(KD가 피코몰 미만으로부터 나노몰 미만까지의 범위에 속함) | KD for CSA (CSA): 높은 친화성(KD가 피코몰 미만으로부터 나노몰 미만까지의 범위에 속함) | KD for RSA (RSA): 높은 친화성(KD가 피코몰 미만으로부터 나노몰 미만까지의 범위에 속함) | KD for MSA (MSA): 높은 친화성(KD가 피코몰 미만으로부터 나노몰 미만까지의 범위에 속함) | KD for DSA (DSA): 높은 친화성(KD가 피코몰 미만으로부터 나노몰 미만까지의 범위에 속함) | HSA binding capacity after heat treatment (HSA): 약간 떨어뜨렸다 | Alpha helix content after heat treatment, pH 4.0 ([5]; 90℃, 12 min, PBS pH 4.0): 약간 감소 | Alpha helix content after heat treatment, pH 7.2 ([5]; 90℃, 12 min, PBS pH 7.2): 어떠한 변화도 없었다 | Effect of short heating to 90℃ on structure (CD spectra before/after) ([5]; temperature gradient 20-90℃, pH 4 or pH 7.2 buffer): 전혀 영향을 미치지 않았다
